The target of series [1] is T1, PSMA (prostate specific membrane antigen) (Homo sapiens, UniProt Q04609 Q04609:44-750). The series can be described thus: SPR; 1:1 with mass transfer; range 5-30 nM in triplicate; 20 mM HEPES pH 7.4, 150 mM NaCl, 2 mM CaCl2. The note with it: tags: R&D Systems 4234-ZN-010; chain copies: 2; label: 5'-biotin-spacer9-G. The method, then:
The data were fit to a 1:1 binding with mass transfer model. […] The on-rate (kₐ) was 1.15×10⁴ M⁻¹·S⁻¹ and the off-rate (kd) was 5.7×10⁻⁵ s⁻¹.
Surface Plasmon Resonance (SPR) measurements were carried out using a BIACore 3000 device. 5′-biotinylated RNA was generated by transcription and gel purification as described above, except the transcription reactions were carried out in the presence of 3 mM biotin-G (Custom order from TriLink Biotechnologies, San Diego, Calif.: 5′-(Biotin) (Spacer 9) G-3′). The biotinylated RNA was immobilized on a streptavidin-coated Biacore chip (Sensor Chip SA, 13R-1003-98, General Electric Company) by injection in binding buffer at a concentration of 25 μg/mL (20 mM HEPES, pH 7.4, 150 mM NaCl, 2 mM CaCl₂). The RNA was refolded by heating to 65° C. followed by cooling to 37° C. prior to immobilization. […]
The NAALADase activity assay provides an indirect measurement of the interaction of the PSMA aptamers with PSMA. […] As determined by the filter binding assay, the A9g aptamer retains the same binding profile as the full-length A9 (FIG. 3A). […] After the injection was halted, the rate of dissociation (koff) was measured. By repeating these measurements at various analyte (PSMA) concentrations, an accurate estimation of binding was determined (KD=koff/Kₒₙ).

In series [2] the target is T2, BSA (bovine serum albumin) (UniProt P02769 P02769:25-607). The series can be described thus: SPR; no appreciable interaction; specificity control. The note with it: label: 5'-biotin-spacer9-G. The method, then:
(§1) Surface Plasmon Resonance (SPR) measurements were carried out using a BIACore 3000 device. 5′-biotinylated RNA was generated by transcription and gel purification as described above, except the transcription reactions were carried out in the presence of 3 mM biotin-G (Custom order from TriLink Biotechnologies, San Diego, Calif.: 5′-(Biotin) (Spacer 9) G-3′). The biotinylated RNA was immobilized on a streptavidin-coated Biacore chip (Sensor Chip SA, 13R-1003-98, General Electric Company) by injection in binding buffer at a concentration of 25 μg/mL (20 mM HEPES, pH 7.4, 150 mM NaCl, 2 mM CaCl₂). The RNA was refolded by heating to 65° C. followed by cooling to 37° C. prior to immobilization. To measure binding kinetics, fixed concentrations of purified protein were injected over the chip using the “KINJECT” function at a flow rate of 15 μL/min. After binding, the chip was regenerated by injecting 50 mM NaOH with the “QUICKINJECT” function. […]
(§2) Binding specificity of the A9g aptamer for PSMA was determined using SPR/BIACore (FIG. 4D; left panel). Binding specificity was assessed by comparing the kₒₙ, and koff rates of A9g for recombinant PSMA protein (target) to the Kₒₙ, and koff rates of A9g for non-target proteins (BSA and HER2). […] No appreciable interaction between A9g and the non-target proteins (BSA and HER2) was measured (FIG. 4D; left panel). […]
On the technique in general: Surface plasmon resonance follows binding to a sensor surface in real time, without labels.

Series [3] deals with T1, PSMA (prostate specific membrane …). The series can be described thus: filter; Bmax severely diminished. The note with it: tags: R&D Systems 4234-ZN-010; chain copies: 2. From the text: FIGS. 4A-4D. Characterization of A9g binding to PSMA. (A) Secondary structural predictions of truncated A9 aptamers generated using the RNAStructure 4.6 algorithm. Base changes are denoted by an asterisk (*). Base changes were introduced in an attempt to either retain the predicted secondary structure (A9g.1 and A9g.2) or disrupt various secondary structural elements (A9g.3-A9g.6) of A9g. Two secondary structure predictions were given for the A9g.4 sequence, denoted by A9g.4a and A9g.4b. (B) Effect of A9g aptamer derivatives (A9g.1 through A9g.6) on PSMA NAALADase inhibitor activity. NAALADase activity was measured and normalized as in FIG. 1. (C) Saturation filter binding assay of A9g aptamer and A9g aptamer derivatives (A9g.3-A9g.6). (D) Binding of A9g to recombinant human PSMA, recombinant rat HER2 (rHER2), and BSA using BIACore (left panel). Binding of A9g.6 to recombinant human PSMA, recombinant rat HER2 (rHER2), and BSA using BIACore (right panel).
(§3) Filter binding assays were performed as previously described (Wong, I. and Lohman, T. M. (1993) A double-filter method for nitrocellulose-filter binding: application to protein-nucleic acid interactions. Prac Natl Acad Sci USA, 90, 5428-5432). Briefly, aptamers were 5′-end labeled with ³²P using PNK. RNA was incubated for 5 minutes with various concentrations of purified, recombinant human PSMA (4234-ZN-010) obtained from R&D Systems at 37° C. The reaction mixture was spotted onto a sandwich of nitrocellulose (Protran BA 83, 0.2 μm pore size, 10 402 488, Whatman), nylon (Zeta-Probe Blotting Membranes, 162-0153, Bio-Rad), and Whatman 3MM chromatography paper (3130-6189) assembled in a dot-blot apparatus. Bound RNA was captured on the nitrocellulose filter, while unbound RNA was captured on the nylon filter. The ratio of bound:unbound RNA was calculated by exposing the filters to a storage phosphor screen and imaging with a phosphorimager.

Series [4] has the same target. The series can be described thus: inhibition; NAALADase; 1 mM CoCl2, 37 C. The note with it: tags: R&D Systems 4234-ZN-010; chain copies: 2. The method, then:
Refolding was accomplished by heating at 65° C. for 10 minutes, followed by cooling to 37° C. for 10 minutes. A volume of 120 μL of refolded RNA in binding buffer was added to an Eppendorf tube, was combined with 40 μL of 200 mM Tris buffer, pH 7.5, and 20 μL 10 mM CoCl₂ (final concentrations in the reaction 40 mM and 1 mM, respectively). Cobalt (II) chloride was reported to be a “stimulator of enzymatic activity” in the original NAALADase assay protocol (Xiao, Z., et al., (2000) Generation of a baculovirus recombinant prostate-specific membrane antigen and its use in the development of a novel protein biochip quantitative immunoassay. Protein Expr Purif, 19, 12-21). When this compound was omitted from the reaction, we observed increased non-specific RNA interactions. Two micrograms in 2 μL of recombinant human PSMA (4234-ZN-010) from R&D Systems (Minneapolis, Minn.) was diluted in 500 μL of 50 mM pH 7.5 Tris buffer. Ten microliters of the PSMA solution (40 ng PSMA) was added to the reaction mix, and the reaction was incubated for 5 minutes at 37° C. to promote RNA-PSMA interaction. For the experiment shown in FIG. 1A, recombinant, purified human PSMA was obtained courtesy of Dr. David Spencer (Baylor College of Medicine, Houston, Tex.). […]
AG 1-X8 formate resin (200-400 mesh) columns from Bio-Rad (731-6221) were used to quantitate the [³H]-glutamate reaction product. […]

Series [5] has the same target. The experiment in a line: 32P-labeled RNA on cells, on ice. The note with it: tags: 22Rv1 (1.7) prostate cancer cells; chain copies: 2. The protocol: One day prior to the binding assay, cells were plated in a 24-well plate at a density of approximately 100,000 cells per well. All subsequent procedures were performed on ice to prevent aptamer internalization. Prior to binding, each well was washed twice with 1 ml of ice-cold Dulbecco's phosphate-buffered saline in the absence of divalent cations (DPBS −/−) to remove growth media. Aptamers were 5′ end-labeled with ³²P using PNK from New England Biolabs as previously described (McNamara, J. O., et al., (2008) Multivalent 4-1BB binding aptamers costimulate CD8+ T cells and inhibit tumor growth in mice. J Clin Invest, 118, 376-386). The concentration of ³²P-radiolabeled aptamer was measured with UV-visible absorption spectroscopy, and serial dilutions ranging from 1000 nM to 30 nM were performed. To measure non-specific binding, serial dilutions were also made containing a high fixed concentration of non-radiolabeled A9g aptamer, at 10 μM. […] Bound RNA was collected by washing with 0.5 ml of 0.5 N NaOH which was added to 3 ml of scintillation fluid, and activity was measured. For each dilution, specific binding was calculated by subtracting the activity of the sample with a high concentration of non-radiolabeled (“cold”) aptamer added (i.e., non-specific binding) from the sample without cold aptamer added (i.e., total binding). […]

The target is the same in series [6]. The series can be described thus: filter; 37 C. Conditions: tags: R&D Systems 4234-ZN-010; chain copies: 2.
Description: FIGS. 3A-3B. Binding of A9 and A9g to human PSMA. (A) A saturation filter binding assay was used to measure binding of A9 and A9g to recombinant human PSMA protein. […] The fraction bound was normalized to the Bₘₐₓ (maximal binding capacity) of A9. (B) Measurement of the binding affinity of A9g for recombinant human PSMA protein by surface plasmon resonance (SPR, BIACore). The data were fit to a 1:1 binding with mass transfer model. […] The on-rate (kₐ) was 1.15×10⁴ M⁻¹·S⁻¹ and the off-rate (kd) was 5.7×10⁻⁵ s⁻¹.
as §3, with “Bound RNA was captured on the nitrocellulose filter, while unbound RNA was captured on the nylon filter.” left out

The target is the same in series [7]. The experiment in a line: inhibition; NAALADase of membrane extract. Conditions: protein: extract; tags: membrane extract of PC-3 (PSMA+) cells stably expressing human PSMA; chain copies: 2.
Series [8] has the same target. The series can be described thus: cell_activity; transwell migration; invasion IC50 75 nM (FIG. 15C). Conditions: tags: PSMA-expressing cells, migration and invasion assays; chain copies: 2.
Series [9] has the same target. The experiment in a line: SPR; lack of binding. The note with it: tags: R&D Systems 4234-ZN-010; chain copies: 2; label: 5'-biotin-spacer9-G. The protocol:
as §1, §2

Series [10] deals with T2, BSA (bovine serum albumin). The series can be described thus: SPR; no measurable binding. Conditions: label: 5'-biotin-spacer9-G. The protocol:
as §1, §2

For series [11], the target named is T1, PSMA (prostate specific membrane …). The experiment in a line: cell_activity; transwell migration. Conditions: tags: PSMA-expressing cells, migration and invasion assays; chain copies: 2.

These results are taken from patent publication US20140148503, “NUCLEIC ACID APTAMERS” (University of Iowa Research Foundation, published 2014).

T1 sequence (Q04609 44-750, one chain of several): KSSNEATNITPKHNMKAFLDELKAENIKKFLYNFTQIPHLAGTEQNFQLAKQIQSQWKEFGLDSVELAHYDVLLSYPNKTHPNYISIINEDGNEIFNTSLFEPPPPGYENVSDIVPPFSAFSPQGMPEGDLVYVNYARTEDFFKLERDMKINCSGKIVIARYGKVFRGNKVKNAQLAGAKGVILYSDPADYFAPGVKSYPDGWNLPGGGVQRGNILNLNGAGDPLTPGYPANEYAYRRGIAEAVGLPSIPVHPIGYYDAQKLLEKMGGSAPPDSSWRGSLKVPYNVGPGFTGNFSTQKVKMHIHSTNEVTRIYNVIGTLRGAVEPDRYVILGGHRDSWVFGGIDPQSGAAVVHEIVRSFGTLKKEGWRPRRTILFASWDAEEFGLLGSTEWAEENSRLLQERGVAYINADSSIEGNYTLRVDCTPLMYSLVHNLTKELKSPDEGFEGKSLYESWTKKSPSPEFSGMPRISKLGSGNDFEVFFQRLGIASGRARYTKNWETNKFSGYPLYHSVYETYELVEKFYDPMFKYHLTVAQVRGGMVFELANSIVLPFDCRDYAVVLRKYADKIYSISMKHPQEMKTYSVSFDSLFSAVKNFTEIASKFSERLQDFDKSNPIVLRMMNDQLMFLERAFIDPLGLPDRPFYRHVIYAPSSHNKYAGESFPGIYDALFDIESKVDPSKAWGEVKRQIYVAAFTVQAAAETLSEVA
T2 sequence (P02769 25-607, one chain of several): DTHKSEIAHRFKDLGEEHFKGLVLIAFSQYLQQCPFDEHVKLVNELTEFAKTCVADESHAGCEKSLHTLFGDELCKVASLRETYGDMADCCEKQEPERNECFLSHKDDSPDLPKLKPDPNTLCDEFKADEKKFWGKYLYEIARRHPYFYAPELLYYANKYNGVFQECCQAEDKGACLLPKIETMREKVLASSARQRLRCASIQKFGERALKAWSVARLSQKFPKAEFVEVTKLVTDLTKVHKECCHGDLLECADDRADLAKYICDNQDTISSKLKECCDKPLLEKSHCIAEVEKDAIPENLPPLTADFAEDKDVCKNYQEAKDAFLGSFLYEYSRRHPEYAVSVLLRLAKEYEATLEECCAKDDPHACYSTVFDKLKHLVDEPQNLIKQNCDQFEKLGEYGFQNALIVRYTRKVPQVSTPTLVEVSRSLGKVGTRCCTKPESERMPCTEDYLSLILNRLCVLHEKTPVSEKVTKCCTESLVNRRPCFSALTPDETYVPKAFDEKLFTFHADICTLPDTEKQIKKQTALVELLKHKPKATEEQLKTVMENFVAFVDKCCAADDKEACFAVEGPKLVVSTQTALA

Broadly, the Kd is the equilibrium constant for the complex coming apart. Consider GGGACCGAAAAAGACCUGACUUCUAUACUAAGUCUACGUUCCC (ssRNA, 2'-F pyrimidines) [A9g 5'-biotin], for which, in series [1], the Kd came to 5 nM. The binding result in series [2] is given as “no binding”.
For the molecule GGGACCGAAAAAGACCUGACUUCUAUACUAAGUCUACGGUCCC (ssRNA, 2'-F pyrimidines) [A9g.3 (U39G)], the binding result in series [3] is “no binding”.
Broadly, the IC50 is the concentration that inhibits the measured activity by half. A low value points to greater potency in that assay. Consider GGGACCGAAAAAGACCUGACUUCUAUACUAAGUCUACGUUCCC (ssRNA, 2'-F pyrimidines) [A9g], for which the IC50 in series [4] was around 10 nM; in series [7], 290 nM; in series [8], 18 nM. In addition, the binding signal in [5] was ~2 fold binding capacity vs PSMA-negative PC-3. The molecule also registered a Kd in series [6] of 130 nM.
In the case of GGGACCGAAAAAGACCUGGCUUCUAUACUAAGUCUACGUUCCC (ssRNA, 2'-F pyrimidines) [A9g.6 5'-biotin], the binding result in series [9] and in series [10] was “no binding” each time.
With GGGACCGAAAAAGACCUGGCUUCUAUACUAAGUCUACGUUCCC (ssRNA, 2'-F pyrimidines) [A9g.6], the binding result in series [3] is given as “no binding”.
As to GGGACCGAAAAAGACCUGACUUCUAUACUAGGUCUACGUUCCC (ssRNA, 2'-F pyrimidines) [A9g.5], the binding result in [3] is given as “no binding”.

B1: A9 (ssRNA)
RNA: GGGAGGACGAUGCGGACCGAAAAAGACCUGACUUCUAUACUAAGUCUACGUUCCCAGACGACUCGCCCGA
modifications: 2'-F pyrimidines
With B1, the IC50 in series [4] was around 10 nM; in [11], 81 nM; in series [7], 267 nM. Further, binding in [6] was put at a Kd of 110 nM.
